Measurements: patent US7025971

T1: PapD (wild type) (E. coli), P15319
T1 chain: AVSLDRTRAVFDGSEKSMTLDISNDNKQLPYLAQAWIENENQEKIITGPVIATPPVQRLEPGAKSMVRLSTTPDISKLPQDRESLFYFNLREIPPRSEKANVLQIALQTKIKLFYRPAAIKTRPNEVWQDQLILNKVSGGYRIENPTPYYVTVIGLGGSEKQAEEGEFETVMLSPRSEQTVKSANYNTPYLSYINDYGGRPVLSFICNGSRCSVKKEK


Biological target: T1, PapD (wild type) (E. coli), P15319

| Binder | % Inhibition [%] |
| --- | --- |
| LSFP (modifications not checked) [G1′-4′] | 0 |
| YALAPNAVIPTSLALL (modifications not checked) [MS] | 1 |
